The text below walks through data of the supplement of paper PMC5998384.

The test system of series [1] is HeLa Kyoto. The series can be described thus: solubility in G1/S (NP-40 vs SDS abundance) (log2 ratio); higher = more soluble. The conditions noted are these: cell cycle stage: G1/S.
Series [2] deals with HeLa Kyoto. The series can be described thus: melting temperature (median over replicates), in situ; higher = more thermally stable.
Series [3] concerns HeLa Kyoto. In words: solubility change mitosis vs G1/S (difference of NP-40 vs SDS log2 ratios) (log2 ratio difference); higher = more soluble in mitosis.
The subject of series [4] is HeLa Kyoto. In words: thermal stability score vs G1/S (z-score of summed log2 fold changes over temperatures); higher = more thermally stable than in G1/S.
The mark [5] stands for this setting: cell cycle stage: early G1 (4.5 h after nocodazole release).
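Throughout, for melting temperature (median over replicates), in situ: HeLa Kyoto cells synchronized by double thymidine or nocodazole block, proteins quantified by TMT10plex mass spectrometry, three independent biological replicates.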
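Throughout, for solubility change mitosis vs G1/S (difference of NP-40 vs SDS log2 ratios): synchronized HeLa Kyoto cells (double thymidine block for G1/S, nocodazole release for mitosis), protein amounts in NP-40 versus SDS lysates quantified by mass spectrometry, three biological replicates.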
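Throughout, for solubility in G1/S (NP-40 vs SDS abundance): HeLa Kyoto cells arrested at G1/S by double thymidine block, proteins quantified by TMT10plex mass spectrometry in mild NP-40 versus SDS extracts, three biological replicates.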
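Throughout, for thermal stability score vs G1/S (z-score of summed log2 fold changes over temperatures): synchronized HeLa Kyoto cells, proteins quantified by TMT10plex mass spectrometry, three biological replicates, mitosis taken 0.5 h after nocodazole release, G1/S directly after double thymidine block.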

Take “MPLENLEEEGLPKNPDLRIAQLRFLLSLPEHRGDAAVRDELMAAVRDNNMAPYYEALCKSLDWQIDVDLLNKMKKANEDELKRLDEELEDAEKNLGESEIRDAMMAKAEYLCRIGDKEGALTAFRKTYDKTVALGHRLDIVFYLLRIGLFYMDNDLITRNTEKAKSLIEEGGDWDRRNRLKVYQGLYCVAIRDFKQAAELFLDTVSTFTSYELMDYKTFVTYTVYVSMIALERPDLREKVIKGAEILEVLHSLPAVRQYLFSLYECRYSVFFQSLAVVEQEMKKDWLFAPHYRYYVREMRIHAYSQLLESYRSLTLGYMAEAFGVGVEFIDQELSRFIAAGRLHCKIDKVNEIVETNRPDSKNWQYQETIKKGDLLLNRVQKLSRVINM [PSMD6]”: the “solubility in G1/S (log2)” value in the series with HeLa Kyoto [1] was -0.15. For the same sequence, the values for the melting temperature in the series on HeLa Kyoto [2] (cell cycle stage: G1/S) and in the series with HeLa Kyoto [2] (cell cycle stage: mitosis) were 53.3 °C and 53.2 °C, respectively. Besides, in the series on HeLa Kyoto [3], the “solubility change mitosis (log2)” value is -0.189. For the same sequence, the thermal stability score in the series with HeLa Kyoto [4] (setting [5]) was 1; in the series with HeLa Kyoto [4] (cell cycle stage: mitosis), 1.09.
As for “MPLLGLLPRRAWASLLSQLLRPPCASCTGAVRCQSQVAEAVLTSQLKAHQEKPNFIIKTPKGTRDLSPQHMVVREKILDLVISCFKRHGAKGMDTPAFELKETLTEKYGEDSGLMYDLKDQGGELLSLRYDLTVPFARYLAMNKVKKMKRYHVGKVWRRESPTIVQGRYREFCQCDFDIAGQFDPMIPDAECLKIMCEILSGLQLGDFLIKVNDRRIVDGMFAVCGVPESKFRAICSSIDKLDKMAWKDVRHEMVVKKGLAPEVADRIGDYVQCHGGVSLVEQMFQDPRLSQNKQALEGLGDLKLLFEYLTLFGIADKISFDLSLARGLDYYTGVIYEAVLLQTPTQAGEEPLNVGSVAAGGRYDGLVGMFDPKGHKVPCVGLSIGVERIFYIVEQRMKTKGEKVRTTETQVFVATPQKNFLQERLKLIAELWDSGIKAEMLYKNNPKLLTQLHYCESTGIPLVVIIGEQELKEGVIKIRSVASREEVAIKRENFVAEIQKRLSES [HARS2]”, the “solubility in G1/S (log2)” value with HeLa Kyoto [1] came out at 0.0324. In addition, the melting temperature with HeLa Kyoto [2] (cell cycle stage: G1/S) came out at 53.6 °C; with HeLa Kyoto [2] (cell cycle stage: mitosis), 53.3 °C. For the same sequence, the “solubility change mitosis (log2)” value in the series on HeLa Kyoto [3] was -0.0551. Moreover, the thermal stability score in the series on HeLa Kyoto [4] (setting [5]) was determined as 2.43; in the series with HeLa Kyoto [4] (cell cycle stage: mitosis), 1.63.
For the sequence “MPLPVALQTRLAKRGILKHLEPEPEEEIIAEDYDDDPVDYEATRLEGLPPSWYKVFDPSCGLPYYWNADTDLVSWLSPHDPNSVVTKSAKKLRSSNADAEEKLDRSHDKSDRGHDKSDRSHEKLDRGHDKSDRGHDKSDRDRERGYDKVDRERERDRERDRDRGYDKADREEGKERRHHRREELAPYPKSKKAVSRKDEELDPMDPSSYSDAPRGTWSTGLPKRNEAKTGADTTAAGPLFQQRPYPSPGAVLRANAEASRTKQQD [PQBP1]”, in the series on HeLa Kyoto [1], the “solubility in G1/S (log2)” value was found to be 0.0148. For the same sequence, the results for the melting temperature in the series with HeLa Kyoto [2] (cell cycle stage: G1/S) and with HeLa Kyoto [2] (cell cycle stage: mitosis) were 58.2 °C and 54.6 °C, respectively. Further, in the series with HeLa Kyoto [3], the “solubility change mitosis (log2)” value amounted to 0.599. In addition, the values for the thermal stability score in the series on HeLa Kyoto [4] (setting [5]) and in the series with HeLa Kyoto [4] (cell cycle stage: mitosis) were -3.93 and -4.26, respectively.
As for “MPLSDFILALKDNPYFGAGFGLVGVGTALALARKGVQLGLVAFRRHYMITLEVPARDRSYAWLLSWLTRHSTRTQHLSVETSYLQHESGRISTKFEFVPSPGNHFIWYRGKWIRVERSREMQMIDLQTGTPWESVTFTALGTDRKVFFNILEEARELALQQEEGKTVMYTAVGSEWRPFGYPRRRRPLNSVVLQQGLADRIVRDVQEFIDNPKWYTDRGIPYRRGYLLYGPPGCGKSSFITALAGELEHSICLLSLTDSSLSDDRLNHLLSVAPQQSLVLLEDVDAAFLSRDLAVENPVKYQGLGRLTFSGLLNALDGVASTEARIVFMTTNHVDRLDPALIRPGRVDLKEYVGYCSHWQLTQMFQRFYPGQAPSLAENFAEHVLRATNQISPAQVQGYFMLYKNDPVGAIHNAESLRR [BCS1L]”, in the series on HeLa Kyoto [1], the “solubility in G1/S (log2)” value is -0.165. Moreover, the melting temperature in the series with HeLa Kyoto [2] (cell cycle stage: G1/S) amounted to 55.4 °C; in the series on HeLa Kyoto [2] (cell cycle stage: mitosis), 54.8 °C. Further, in the series with HeLa Kyoto [3], the “solubility change mitosis (log2)” value was -0.291. Further, the thermal stability score in the series on HeLa Kyoto [4] (setting [5]) was 0.147; with HeLa Kyoto [4] (cell cycle stage: mitosis) it was -1.22.
In the case of “MPMFIVNTNVPRASVPDGFLSELTQQLAQATGKPPQYIAVHVVPDQLMAFGGSSEPCALCSLHSIGKIGGAQNRSYSKLLCGLLAERLRISPDRVYINYYDMNAANVGWNNSTFA [MIF]”, the “solubility in G1/S (log2)” value with HeLa Kyoto [1] turned out to be 0.405. In addition, the figures for the melting temperature with HeLa Kyoto [2] (cell cycle stage: G1/S) and in the series with HeLa Kyoto [2] (cell cycle stage: mitosis) were 53.5 °C and 52.5 °C, respectively. For the same sequence, the “solubility change mitosis (log2)” value with HeLa Kyoto [3] was -0.0337. Also, the thermal stability score is -7.37 with HeLa Kyoto [4] (setting [5]) and -7.71 in the series with HeLa Kyoto [4] (cell cycle stage: mitosis).
As to “MPNSEPASLLELFNSIATQGELVRSLKAGNASKDEIDSAVKMLVSLKMSYKAAAGEDYKADCPPGNPAPTSNHGPDATEAEEDFVDPWTVQTSSAKGIDYDKLIVRFGSSKIDKELINRIERATGQRPHHFLRRGIFFSHRDMNQVLDAYENKKPFYLYTGRGPSSEAMHVGHLIPFIFTKWLQDVFNVPLVIQMTDDEKYLWKDLTLDQAYSYAVENAKDIIACGFDINKTFIFSDLDYMGMSSGFYKNVVKIQKHVTFNQVKGIFGFTDSDCIGKISFPAIQAAPSFSNSFPQIFRDRTDIQCLIPCAIDQDPYFRMTRDVAPRIGYPKPALLHSTFFPALQGAQTKMSASDPNSSIFLTDTAKQIKTKVNKHAFSGGRDTIEEHRQFGGNCDVDVSFMYLTFFLEDDDKLEQIRKDYTSGAMLTGELKKALIEVLQPLIAEHQARRKEVTDEIVKEFMTPRKLSFDFQ [WARS]”, the “solubility in G1/S (log2)” value in the series on HeLa Kyoto [1] turned out to be 0.127. In addition, the melting temperature was determined as 56.7 °C in the series on HeLa Kyoto [2] (cell cycle stage: G1/S) and 56.3 °C with HeLa Kyoto [2] (cell cycle stage: mitosis). Besides, the “solubility change mitosis (log2)” value in the series with HeLa Kyoto [3] was -0.199. The thermal stability score in the series with HeLa Kyoto [4] (setting [5]) was -0.453; in the series on HeLa Kyoto [4] (cell cycle stage: mitosis), -0.825.
